The values that follow come from patent publication US20260273045A1.

The target in this assay is OVA peptide SIINFEKL bound to H-2Kb MHC I on mouse phDC / BMDC (mouse). The assay is described as follows: cell-based or functional assay.

For the sequence “T cell receptor of OVA-specific OT1 CD8 T cells (C57Bl/6-Tg (TcraTcrb)1100Mjb/J mice)”, the Proliferation of the OT1 CD8 T cells (CFSE dilution), coculture with titrated numbers of OVA mRNA LNP-transduced phDC is under 47%.
